The text below walks through data of patent US20240124531A1, “COMPOUNDS AND METHODS FOR EXTENDING HALF LIFE OF BIOMOLECULES” (AFFILOGIC, priority 2021, published 2024).

A word on the Kd: it is the free concentration of one partner at which half of the binding sites on the other are occupied at equilibrium, for simple one-to-one binding. Usually koff stands for a measure of how fast the partners let go of each other.

For series [1] the following is noted: fluorescein alone, single i.v. injection, analysis of literature data (Chahal et al.); cited from earlier work.
The next series deals with T1, Rabbit serum albumin (Rabbit, UniProt P49065 25-608).
T1 construct: also called RabSA; RabSa
T1 sequence (P49065 25-608 limits assumed): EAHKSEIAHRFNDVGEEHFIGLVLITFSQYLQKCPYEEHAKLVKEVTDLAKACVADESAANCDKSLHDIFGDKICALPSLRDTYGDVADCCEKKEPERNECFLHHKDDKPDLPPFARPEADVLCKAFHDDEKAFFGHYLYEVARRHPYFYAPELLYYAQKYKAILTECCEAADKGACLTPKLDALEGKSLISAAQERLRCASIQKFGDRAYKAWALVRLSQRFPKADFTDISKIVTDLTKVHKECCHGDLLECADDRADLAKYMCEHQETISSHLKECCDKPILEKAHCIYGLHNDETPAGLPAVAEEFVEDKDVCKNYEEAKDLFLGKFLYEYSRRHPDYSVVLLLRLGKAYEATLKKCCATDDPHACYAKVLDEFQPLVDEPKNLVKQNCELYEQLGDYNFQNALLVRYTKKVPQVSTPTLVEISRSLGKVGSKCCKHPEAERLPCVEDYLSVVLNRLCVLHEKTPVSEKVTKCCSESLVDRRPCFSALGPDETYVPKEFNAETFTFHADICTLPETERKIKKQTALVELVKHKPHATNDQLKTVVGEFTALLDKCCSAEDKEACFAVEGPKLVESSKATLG
The experiment in a line: biolayer interferometry, cross reactivity on albumins of different species; legend: '-' symbol refers to an absence of detectable binding. Background: In BLI a coated tip is dipped into the sample, and binding shifts an interference pattern.

In another series the target is T2, human serum albumin (human, UniProt P02768 25-609, biotinylated (sites not given) in the biolayer interferometry of Example 1).
T2 construct: Biotinylated HSA immobilised on streptavidin biosensors; also called HSA
Briefly: biolayer interferometry (octet red96); biotinylated HSA on streptavidin biosensors, Nanofitin 15.6-1000 nM.

Series [2] concerns the target T3, human serum albumin Domain I (aa1-197) (human, UniProt P02768 25-221).
T3 construct: range 1-197; Domain III ends at 585, so they probably count on mature albumin (585 residues) and not on the precursor entry
The experiment in a line: biolayer interferometry, His-tagged F06 on Ni-NTA biosensors, albumin domain at 250 nM, response at 180 s. The text has this:
(§1) The albumin is described as having three domains, dubbed domain I, II and III. Interaction of the albumin with the FcRn receptor involves domain I and III. Domain I (aa1-197), domain II (aa189-385), and domain III (aa381-585) and Domain I-II (aa1-385) were obtained from Albumin Bioscience. Interaction of the anti-albumin Nanofitins with the different domains was investigated by biolayer interferometry according to the following procedure. […] The sensors were then allowed to equilibrate for 60 sec in protein free blocking buffer (Thermo Scientific) supplemented with 0.002% of tween20.

Series [3] concerns the target T4, human serum albumin domain III (aa381-585) (human, UniProt P02768 405-609).
T4 construct: range 381-585; The residue numbers probably count on mature albumin (585 residues)
The series is described as above.
Description: as §1

Another series deals with T5, Rat serum albumin (Rat, UniProt P02770 25-608).
T5 construct: also called RSA
T5 sequence (P02770 25-608 limits assumed): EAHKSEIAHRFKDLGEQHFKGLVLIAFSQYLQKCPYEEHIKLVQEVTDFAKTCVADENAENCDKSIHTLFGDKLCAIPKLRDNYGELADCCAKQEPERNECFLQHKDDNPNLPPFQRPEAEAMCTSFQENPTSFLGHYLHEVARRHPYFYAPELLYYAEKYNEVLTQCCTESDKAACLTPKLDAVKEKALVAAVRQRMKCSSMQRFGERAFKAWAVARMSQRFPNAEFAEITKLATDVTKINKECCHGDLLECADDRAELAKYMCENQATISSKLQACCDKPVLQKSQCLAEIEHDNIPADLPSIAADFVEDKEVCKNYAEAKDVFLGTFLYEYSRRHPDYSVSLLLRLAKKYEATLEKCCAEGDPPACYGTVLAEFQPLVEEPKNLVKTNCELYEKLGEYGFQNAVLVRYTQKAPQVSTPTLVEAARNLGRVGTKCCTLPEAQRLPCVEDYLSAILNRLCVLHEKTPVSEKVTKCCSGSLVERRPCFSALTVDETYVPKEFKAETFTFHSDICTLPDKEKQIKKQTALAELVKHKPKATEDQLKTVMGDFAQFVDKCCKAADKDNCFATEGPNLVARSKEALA
The experiment in a line: biolayer interferometry, cross reactivity pattern (graded strength of binding).

In series [4] the target is T6, Cynomolgus monkey serum albumin (Cynomolgus monkey, UniProt A2V9Z4 25-608).
T6 construct: also called CSA
T6 sequence (A2V9Z4 25-608 limits assumed): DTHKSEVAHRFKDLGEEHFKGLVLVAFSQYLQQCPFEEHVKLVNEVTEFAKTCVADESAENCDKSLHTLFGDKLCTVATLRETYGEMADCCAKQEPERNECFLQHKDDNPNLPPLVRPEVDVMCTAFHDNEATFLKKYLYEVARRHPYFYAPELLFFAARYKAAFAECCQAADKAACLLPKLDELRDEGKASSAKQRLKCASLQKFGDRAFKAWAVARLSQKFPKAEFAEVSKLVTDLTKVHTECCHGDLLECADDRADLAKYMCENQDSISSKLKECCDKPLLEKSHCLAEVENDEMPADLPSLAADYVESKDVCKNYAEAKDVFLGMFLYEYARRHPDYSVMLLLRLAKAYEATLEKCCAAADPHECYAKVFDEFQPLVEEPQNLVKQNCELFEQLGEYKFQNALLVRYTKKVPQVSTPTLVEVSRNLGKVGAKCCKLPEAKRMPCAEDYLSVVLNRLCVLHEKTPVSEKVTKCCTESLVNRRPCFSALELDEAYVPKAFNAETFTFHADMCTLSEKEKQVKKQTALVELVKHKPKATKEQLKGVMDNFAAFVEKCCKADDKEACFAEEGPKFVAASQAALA
The description is as above.

In the next series the target is T7, Mouse serum albumin (Mouse, UniProt P07724 25-608).
T7 construct: also called MSA
T7 sequence (P07724 25-608 limits assumed): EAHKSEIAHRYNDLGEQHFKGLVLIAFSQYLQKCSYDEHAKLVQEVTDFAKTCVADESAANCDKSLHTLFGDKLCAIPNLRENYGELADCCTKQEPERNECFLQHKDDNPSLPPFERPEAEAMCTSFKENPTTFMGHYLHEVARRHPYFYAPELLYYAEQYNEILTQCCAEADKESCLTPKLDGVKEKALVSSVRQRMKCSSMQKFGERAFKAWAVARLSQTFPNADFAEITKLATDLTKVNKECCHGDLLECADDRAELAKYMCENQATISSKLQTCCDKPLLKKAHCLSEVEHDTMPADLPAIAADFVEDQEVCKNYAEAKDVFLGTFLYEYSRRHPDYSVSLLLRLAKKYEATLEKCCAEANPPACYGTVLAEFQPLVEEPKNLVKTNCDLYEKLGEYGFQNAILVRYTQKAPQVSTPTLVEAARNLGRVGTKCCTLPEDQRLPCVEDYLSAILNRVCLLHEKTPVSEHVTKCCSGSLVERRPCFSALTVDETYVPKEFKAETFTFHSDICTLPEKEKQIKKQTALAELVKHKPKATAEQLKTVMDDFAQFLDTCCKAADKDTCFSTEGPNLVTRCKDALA
The description is as above.

Turning to `O=C1OC2(c3ccc(O)cc3Oc3cc(O)ccc32)c2ccccc21` [Fluorescein], in series [1], the “t1/2 in mouse serum” value is recorded as “about 8 min”.

B1: Nanofitin F06 (designed binder)
chain: VKVKFVFSGEEKEVETSKIKWVLRWGKAVGFKYDDQGKIGYGFVAEKDAPKELLDMLARAEREK
notes: also called anti-albumin Nanofitin
With B1, the binding result is given as “no binding” in the series with Rabbit serum albumin, “no binding (tested: 250 nM)” in series [2] and “no binding (tested: 250 nM)” in series [3]. The molecule further came in with a Kd in the series with human serum albumin of 8.38 nM. This molecule yielded a koff with human serum albumin of 0.000304 s⁻¹.

B2: Nanofitin B11 (designed binder)
chain: VKVKFWPRGEEKVVDTSKIAWVLRADKTVMFKYDDNGKKGYGVVLEKDAPKELLDMLARAEREK
notes: Variant of Sac7d; also called anti-albumin Nanofitin
Regarding B2, the binding result in the series with Rabbit serum albumin was “no binding”; in the series with Rat serum albumin, “binds”; in series [4] it was “binds”; with Mouse serum albumin, “binds”.
